# According to US20200297842A1 (published 2020):
# How the values were obtained:
# [1] = biological target: T1, human SIRPγ expressed on cells (human, UniProt Q9P1W8 29-387); experiment: flow cytometry on activated human CD3 T cells expressing SIRPγ
# T1 construct: Endogenous SIRPγ on Jurkat T-ALL cells and on human CD3+ T cells; also called SIRPγ expressing Jurkat cells; Human T Cells Expressing SIRPγ
# Method: (§1) Human CD3 T cells, isolated from peripheral blood mononuclear cells (Astarte Biologics) were incubated in 96-well V-bottom plates at 2.5 \ 10⁵ cells/well for 1 h at 37° C., 5% CO₂ with serial dilutions of SIRP mAbs in binding buffer containing 1 mM EDTA (Sigma Aldrich), 1% FBS (Biowest) in PBS (Corning). The cells were then washed and stained for 45 min under the same conditions with donkey anti-mouse IgG fluorescein isothiocyanate (FITC)-linked secondary antibody (Jackson ImmunoResearch Laboratories). The cells were subsequently stained with anti-CD3 conjugated to 3-carboxy-6,8-difluoro-7-hydroxycoumarin (Pacific Blue) fluorophore (BioLegend) for 30 min on ice, washed and analyzed by flow cytometry (Attune, Life Technologies). Binding was assessed as the median FITC fluorescence intensity of CD3⁺ cells, subtracted from CD3⁺ cells stained with the secondary antibody only. All SIRP antibodies were generated in-house except for LSB2.20 (BioLegend). For activated T cells, prior to the binding assay CD3 T cells were activated for 72 h in a 96-well flat-bottom plate coated with 10 μg/ml anti-CD3 (clone UCHT1; BioLegend), at 1×10⁵ cells/well in the presence of 0.5 μg/ml anti-CD28 (clone CD28.2; BioLegend).
# [2] = biological target: T1, human SIRPγ expressed on cells; experiment: flow cytometry on naive human CD3 T cells expressing SIRPγ
# Method: as §1
# [3] = biological target: T1, human SIRPγ expressed on cells; experiment: flow cytometry on naive human CD3 T cells expressing SIRPγ (second column)
# Method: as §1
# [4] = biological target: HIS tagged human SIRPα (ACRO # SIG-H5225) (human) (UniProt P78324); experiment: blocking ELISA: mAb on plate-coated HIS tagged human SIRPα, then Fc tagged human CD47
# [5] = biological target: T2, Fc tagged human SIRPα (ACRO # SIG-H5251, genotype variant 1) (human, UniProt P78324 31-370, limits assumed); experiment: ELISA, plate-coated Fc tagged human SIRPα; apparent Kd
# T2 construct: Bought protein; also called Fc tagged human SIRP alpha; recombinant human SIRPα; not shown: Fc tag
# Method: The binding of anti-SIRP monoclonal antibodies (mAbs) of the present disclosure to SIRP alpha (SIRPα) was determined by solid phase ELISA using an Fc tagged human SIRP alpha. Binding by soluble anti-SIRP antibodies was measured in vitro.
# Fc tagged human SIRPα (ACRO # SIG-H5251, genotype variant 1) is adsorbed to high-binding microtiter plates at a concentration of 1 μg/ml diluted in phosphate buffered saline (PBS) overnight at 4° C. The coating solution is removed, the wells are washed and then blocked with 75% casein in PBS containing 0.5% Tween 20 (PBST) for 60 minutes at room temperature while shaking. Blocking solution is removed, the wells are washed and incubated for 60 minutes at room temperature while shaking with either murine or human anti-SIRP mAbs diluted in PBST at a starting concentration of 30 μg/ml and reducing the concentration in 3-fold serial dilutions. Wells are washed three times with PBST and incubated for 60 minutes at room temperature while shaking with an HRP-labeled donkey anti-mouse or anti-human secondary antibody (Jackson ImmunoResearch Laboratories) diluted 1:10,000 in PBST. The wells are washed and then incubated with peroxidase substrate and the absorbance at 450 nm measured. The apparent affinities were calculated using a non-linear fit model (GraphPad Prism).
# [6] = biological target: T3, Fc tagged human SIRPγ (ACRO # SIG-H5253) (human, UniProt Q9P1W8 29-360); experiment: blocking ELISA: mAb with human SIRPγ (ACRO # SIG-H5253) on plate-coated HIS tagged human CD47
# T3 construct: Bought protein; it includes the transmembrane and cytoplasmic part, which a soluble Fc fusion would not carry; also called Fc tagged human SIRP gamma; recombinant human SIRP gamma; not shown: Fc tag
# Method: HIS tagged human CD47 (ACRO # CD7-H5227) is adsorbed to high-binding microtiter plates at a concentration of 2 μg/ml diluted in PBS overnight at 4° C. The coating solution is removed, the wells are washed and then blocked with 75% casein in PBS containing 0.5% Tween 20 (PBST) for 60 minutes at room temperature while shaking. Blocking solution is removed, the wells are washed and incubated for 60 minutes at room temperature while shaking with anti-SIRP mAbs diluted in PBST at a starting concentration of 30 μg/ml and reducing the concentration in 3 fold serial dilutions and 0.5 μg/ml of human SIRPγ (ACRO # SIG-H5253). Wells are washed three times with PBST and incubated for 60 minutes at room temperature while shaking with an HRP labeled donkey anti-mouse or anti-human secondary antibody (Jackson ImmunoResearch Laboratories) diluted 1:20,000 in PBST. The wells are washed and then incubated with peroxidase substrate and the absorbance at 450 nm determined. The IC₅₀ was calculated using a non-linear fit model (GraphPad Prism).
# [7] = biological target: T3, Fc tagged human SIRPγ (ACRO # SIG-H5253); experiment: ELISA, plate-coated Fc tagged human SIRPγ; apparent Kd
# Method: The binding of anti-SIRP antibodies of the present disclosure to SIRP gamma (SIRPγ) was determined by ELISA using an Fc tagged human SIRPγ. Binding by soluble anti-SIRP antibodies was measured in vitro.
# (§2) Fc tagged human SIRPγ (ACRO # SIG-H5253) is adsorbed to high-binding microtiter plates at a concentration of 1 μg/ml in phosphate buffered saline (PBS) overnight at 4° C. The coating solution is removed, the wells are washed and then blocked with 75% casein in PBS containing 0.5% Tween 20 (PBST) for 60 minutes at room temperature while shaking. Blocking solution is removed, the wells are washed and incubated for 60 minutes at room temperature while shaking with anti-SIRP mAbs diluted in PBST at a starting concentration of 30 μg/ml and reducing the concentration in 3-fold serial dilutions. Wells are washed three times with PBST and incubated for 60 minutes at room temperature while shaking with an HRP labeled donkey anti-mouse or anti-human secondary antibody (Jackson ImmonResearch Laboratories) diluted 1:10,000 in PBST. The wells are washed and then incubated with peroxidase substrate and the absorbance at 450 nm determined. The apparent affinities were calculated using a non-linear fit model (GraphPad Prism).
# [8] = biological target: T3, Fc tagged human SIRPγ (ACRO # SIG-H5253); experiment: ELISA, plate-coated Fc tagged human SIRPγ
# Method: as §2
# [9] = biological target: T4, human SIRPα expressed on cells (human, UniProt P78324 31-504); experiment: flow cytometry on human monocyte-derived macrophages; apparent Kd
# T4 construct: whole, on cells; Endogenous SIRPα of THP-1 cells and of donor-derived macrophages and dendritic cells; also called SIRPα expressing THP-1 cells; cell-expressed SIRPα on dendritic cells and/or macrophages
# Method: (§3) Human CD14⁺ monocytes, isolated from peripheral blood mononuclear cells (Astarte Biologics) were differentiated in vitro for seven days into macrophages or dendritic cells. For macrophage differentiation, monocytes were incubated in AIM-V media (Life Technologies) supplemented with 50 ng/ml M-CSF (Biolegend) for seven days. For dendritic cell differentiation, monocytes were incubated in AIM-V media (Life Technologies) in the presence of 10% human AB serum (Valley Biomedical), 200 ng/ml GM-CSF (Biolegend) and 50 ng/ml IL-4 (Biolegend). The cells were incubated for 1 h at 37° C., 5% CO₂ with serial dilutions of SIRP mAbs in binding buffer containing 1 mM EDTA (Sigma Aldrich) and 1% FBS (Biowest) in PBS (Corning). The cells were then washed and stained for 45 min under the same conditions with donkey anti-mouse IgG fluorescein isothiocyanate (FITC)-linked secondary antibody (Jackson ImmunoResearch Laboratories). The cells were subsequently stained with anti-CD14 or anti-CD11c conjugated to Alexa Fluor 647 fluorophore (Life Technologies and Biolegend, respectively) for 30 min on ice, washed and analyzed by flow cytometry (Attune, Life Technologies). Binding was assessed as the median FITC fluorescence intensity of CD14⁺ or CD11c⁺ cells, subtracted from cells stained with the secondary antibody only.
# [10] = biological target: T4, human SIRPα expressed on cells; experiment: flow cytometry on human monocyte-derived dendritic cells; apparent Kd
# Method: as §3
# T2 sequence (P78324 31-370 limits assumed, change not shown, form in doubt): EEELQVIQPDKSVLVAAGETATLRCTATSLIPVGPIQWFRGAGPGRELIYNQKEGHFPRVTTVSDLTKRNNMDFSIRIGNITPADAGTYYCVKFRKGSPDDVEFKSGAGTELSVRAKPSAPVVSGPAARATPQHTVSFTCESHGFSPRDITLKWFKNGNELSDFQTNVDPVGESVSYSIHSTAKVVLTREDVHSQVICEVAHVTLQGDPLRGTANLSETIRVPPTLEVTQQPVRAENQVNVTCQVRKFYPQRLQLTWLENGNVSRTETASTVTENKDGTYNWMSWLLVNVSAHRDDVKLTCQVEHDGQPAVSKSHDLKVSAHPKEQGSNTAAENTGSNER
# Sequence of HIS tagged human SIRPα (ACRO # SIG-H5225) (human) (P78324 31-370): as the sequence (P78324 31-370 limits assumed, change not shown, form in doubt) above
# T3 sequence (Q9P1W8 29-360 limits assumed): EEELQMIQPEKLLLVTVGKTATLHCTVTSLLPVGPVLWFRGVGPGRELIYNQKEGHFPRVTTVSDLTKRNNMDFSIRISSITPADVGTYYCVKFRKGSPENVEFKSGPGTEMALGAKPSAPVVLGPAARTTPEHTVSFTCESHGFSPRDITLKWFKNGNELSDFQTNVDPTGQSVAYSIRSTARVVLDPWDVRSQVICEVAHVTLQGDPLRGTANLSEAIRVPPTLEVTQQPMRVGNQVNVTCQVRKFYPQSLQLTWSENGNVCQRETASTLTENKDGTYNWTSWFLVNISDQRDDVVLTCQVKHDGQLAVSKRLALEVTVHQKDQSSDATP
# T1 sequence (Q9P1W8 29-387): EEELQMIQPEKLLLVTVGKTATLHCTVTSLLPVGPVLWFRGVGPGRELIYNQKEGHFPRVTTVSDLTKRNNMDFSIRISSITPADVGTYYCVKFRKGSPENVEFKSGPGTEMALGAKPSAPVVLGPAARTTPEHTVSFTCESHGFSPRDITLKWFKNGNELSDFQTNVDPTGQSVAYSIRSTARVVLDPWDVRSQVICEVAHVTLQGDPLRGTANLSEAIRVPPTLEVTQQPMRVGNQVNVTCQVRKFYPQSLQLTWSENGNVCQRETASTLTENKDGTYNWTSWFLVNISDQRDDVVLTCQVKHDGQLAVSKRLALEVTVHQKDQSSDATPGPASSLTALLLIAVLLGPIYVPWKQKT
# T4 sequence (P78324 31-504): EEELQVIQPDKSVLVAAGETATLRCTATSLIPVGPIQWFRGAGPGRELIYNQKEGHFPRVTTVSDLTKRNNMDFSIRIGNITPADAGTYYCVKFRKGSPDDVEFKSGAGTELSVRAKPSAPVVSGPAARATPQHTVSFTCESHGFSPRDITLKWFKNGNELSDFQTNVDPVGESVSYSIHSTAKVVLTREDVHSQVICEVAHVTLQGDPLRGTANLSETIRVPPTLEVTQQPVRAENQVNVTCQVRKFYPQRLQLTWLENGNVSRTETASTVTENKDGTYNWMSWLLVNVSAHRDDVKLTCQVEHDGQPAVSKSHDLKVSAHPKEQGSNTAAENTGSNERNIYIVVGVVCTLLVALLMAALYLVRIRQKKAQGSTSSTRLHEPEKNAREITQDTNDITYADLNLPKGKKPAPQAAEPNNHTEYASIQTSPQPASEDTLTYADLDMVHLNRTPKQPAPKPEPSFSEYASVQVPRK
Molecule,Kd [1],Kd [2],Kd [3],IC50 [4],Kd [5],IC50 [6],Kd [7],binding result [8],Kd [9],Kd [10]
LSB2.20 (antibody),950 pM,750 pM,1260 pM,–,–,–,–,–,–,–
"SIRP7 (antibody, V domains shown) VH: EVQLQQSGPELVKPGASVKMSCRASGYTFSTYVMHWIKHRPGQGLEWIGYINPNNDGPNYNEKFKGKATLTSDISSSTAYMELSSLTSEDSAVYFCSRWDSYNSAAGFAYWGHGTLVTVSA VL: EIVLTQSPTTMAASPGEKITIICSASSSISSNFLHWYQQKPGFSPRFLIYRTSILASGVPTRFSGSGSGTSYSLTIDTMEAEDVATYYCQQGSGLPLTFGSGTKLEIK",–,83.9 pM,–,1100 pM,197 pM,630 pM,99 pM,–,–,–
"SIRP8 (antibody, V domains shown) VH: EVQLQESGGGLVKPGGSLKLSCAASGFTLSTYTMSWVRQTPEKRLEWVAIITSGDTYTYYPDSVKGRFTISRDNAKNTLYLQMSSLKSEDTGMYYCTRDRPLFHWGQGTTLTVST VL: QIVLTQSPAIMSASPGEKVTMTCSASSSVSYMYWYQQKPGSSPRLLIYDTSNLASGVPVRFSGSGSGTSYSLTISRMEAEDAATYYCQQWSSFPWTFGGGTKLEIK",–,–,–,–,57 pM,–,–,no binding (tested: 30 µg/ml),–,–
"OSE-18D5 (antibody, from another filing, V domains shown) VH: QVQLQQPGAELVRPGSSVKLSCKASGYTFTSYWVHWVKQRPIQGLEWIGNIDPSDSDTHYNQKFKDKASLTVDKSSSTAYMQLSSLTFEDSAVYYCVRGGTGTMAWFAYWGQGTLVTVSA VL: DVVMTQTPLSLPVSLGDQASISCRSSQSLVHSYGNTYLYWYLQKPGQSPKLLIYRVSNRFSGVPDRFSGSGSGTDFTLKISRVEAEDLGVYFCFQGTHVPYTFGSGTKLEIK",–,8410 pM,–,–,–,–,–,–,37.3 pM,41.2 pM
"SIRP4 (antibody, V domains shown, detected with anti-mouse secondary antibody in the cell assays) VH: EVQLQQSGPDLVKPGASVKISCKASGYSFTDYFLNWVKQSHGKSLEWIGRINPYNGDSFINQNFRDKATLTVDKSSTTAHMDLLSLTSEDSAIYYCGRGGYDGYFIAYFDYWGQGSLVTVSA VL: DIKLTQSQSSMYSSLGQRVTITCKASQDINSHLSWFQEKPGKSPKTLIYRANRLADGVPSRFSGSGSGQDYFLTISSLEYEDVGIYYCLQYDEFPYTFGGGTKLEIK",–,–,–,710 pM,161 pM,440 pM,274 pM,–,20.7 pM,50 pM
"SIRP5 (antibody, V domains shown) VH: QVQLQQSAAELARPGASVKMSCKASGYTFTSYTMHWVKQRPGQGLEWIGYINPTIGYTEYNQKFKDKTTLTADKSSSTAYMQLSSLTSEDSAVYYCVRLVITSVLGRAMDYWGQGTSVTVSS VL: QIVLTQSPALMSASPGEKVTMTCSASSSVSYMYWFQQKPRSSPKPWIYLTSNLASGVPARFSGSGSGTSYSLTISSMEAEDAATYYCQQWSGNPFTFGSGTKLEIK",–,–,–,–,65 pM,163 pM,126 pM,–,–,770 pM
"SIRP3 (antibody, mouse IgG1, kappa, V domains shown, Hybridoma-derived mouse mAb) VH: EVQLQQSGPEVVKPGASVKMSCKASGYTFTSYVMHWVKQKPGQGLEWIGYINPYNDGPKYNEKFKGKATLTSDKSSSTAYMELSSLTSEDSAVYFCARWDYFNSASGFAFWGQGTLVTVSA VL: EIVLTQSPTTMAASPGEKITIICSASSIIGSDFLHWYQQRPGFSPKFLIYRTSILASGVPTRFTGSGSGTSYSLTIGTMEAEDVATYYCQQGSGLPLTFGSGTKLEMKR",–,80.7 pM,–,2700 pM,289 pM,960 pM,170 pM,–,–,3.47 pM
"SIRP2 (antibody, mouse IgG1, kappa, V domains shown, Hybridoma-derived mouse mAb) VH: EVKLVESGGGLVQPGGSLKLSCAASGFSFSGCTMSWIRQTPERRLEWVAYISNGGDITYYPDTVKGRFTISRDNAKNSLYLQMSSLKSEDTAMYYCARLDGYYYAMDFWGQGTSVTVSS VL: DILLTQSPAILSVSPGERVSFSCRASQSIGTSIHWYQQRTNGSPRLLIKYGSESISGIPSRFSGSGSGTDFTLSINSVESEDIADYYCQQSNTWPLTFGDGTKLELKR",–,–,–,3000 pM,182 pM,3500 pM,734 pM,–,–,–
"SIRP19 (antibody, human IgG4 S228P, kappa, V domains shown) VH: EVQLVQSGAEVKKPGESLKISCKGSGYSFTDYFLNWVRQMPGKGLEWMGRINPYNGDSFINQNFRDQVTISADKSISTAYLQWSSLKASDTAMYYCARGGYDGYFIAYFDYWGAGTTVTVSS VL: DIQMTQSPSSLSASVGDRVTITCKASQDINSHLSWYQQKPGKAPKLLIYRANRLATGVPSRFSGSGSGTDFTFTISSLQPEDIATYYCQQYDEFPYTFGGGTKLEIKR",–,–,–,–,> 19000 pM,–,–,no binding (tested: 30 µg/ml),–,–
